pKd, pKi: −log10 of the molar value. Read-outs that look alike come from different tables or passages of the source. Values belong to the substance of their own block, whether it stands above or below them.
Tests used:
[1] = molecular target: cpSRP54 (chloroplast SRP54), wildtype (Arabidopsis thaliana) (UniProt P37107); assay: GTPase inhibition assay
[2] = molecular target: cpSRP54 (chloroplast SRP54), wildtype (Arabidopsis thaliana) (UniProt P37107)
cpFtsY(321C)-DACM = cpFtsY(321C)-DACM (UniProt O80842); assay: FRET or BRET
[3] = molecular target: cpFtsY(A168W) labeled for FRET; assay: FRET or BRET
[4] = molecular target: cpSRP54 (chloroplast SRP54), wildtype (Arabidopsis thaliana) (UniProt P37107); assay: GTPase inhibition assay; remark: listed apart in the source
[5] = molecular target: cpFtsY (chloroplast SRP receptor), wildtype (UniProt O80842); assay: GTPase inhibition assay
[6] = molecular target: cpFtsY (chloroplast SRP receptor), wildtype (UniProt O80842)
[7] = molecular target: cpFtsY (chloroplast SRP receptor), wildtype (UniProt O80842); assay: GTPase inhibition assay; remark: listed apart in the source
FtsY (Escherichia coli) = FtsY (Escherichia coli) (UniProt P10121); conditions: cited from earlier work
Sequence of FtsY (Escherichia coli) (P10121 2-497): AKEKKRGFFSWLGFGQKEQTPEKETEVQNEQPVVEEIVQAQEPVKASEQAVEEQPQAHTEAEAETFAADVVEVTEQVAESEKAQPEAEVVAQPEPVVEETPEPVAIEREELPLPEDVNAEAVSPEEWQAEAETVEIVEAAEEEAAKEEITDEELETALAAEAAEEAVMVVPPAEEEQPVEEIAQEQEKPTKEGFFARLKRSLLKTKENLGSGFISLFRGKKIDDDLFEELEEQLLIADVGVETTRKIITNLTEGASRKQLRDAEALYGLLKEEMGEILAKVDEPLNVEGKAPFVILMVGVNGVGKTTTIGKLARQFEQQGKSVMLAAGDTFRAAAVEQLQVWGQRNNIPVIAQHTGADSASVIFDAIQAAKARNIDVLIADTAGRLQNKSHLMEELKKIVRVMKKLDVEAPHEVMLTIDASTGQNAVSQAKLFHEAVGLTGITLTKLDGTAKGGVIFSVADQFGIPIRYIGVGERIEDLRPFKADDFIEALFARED

Sequence of cpSRP54 (chloroplast SRP54), wildtype (Arabidopsis thaliana) (P37107 76-564): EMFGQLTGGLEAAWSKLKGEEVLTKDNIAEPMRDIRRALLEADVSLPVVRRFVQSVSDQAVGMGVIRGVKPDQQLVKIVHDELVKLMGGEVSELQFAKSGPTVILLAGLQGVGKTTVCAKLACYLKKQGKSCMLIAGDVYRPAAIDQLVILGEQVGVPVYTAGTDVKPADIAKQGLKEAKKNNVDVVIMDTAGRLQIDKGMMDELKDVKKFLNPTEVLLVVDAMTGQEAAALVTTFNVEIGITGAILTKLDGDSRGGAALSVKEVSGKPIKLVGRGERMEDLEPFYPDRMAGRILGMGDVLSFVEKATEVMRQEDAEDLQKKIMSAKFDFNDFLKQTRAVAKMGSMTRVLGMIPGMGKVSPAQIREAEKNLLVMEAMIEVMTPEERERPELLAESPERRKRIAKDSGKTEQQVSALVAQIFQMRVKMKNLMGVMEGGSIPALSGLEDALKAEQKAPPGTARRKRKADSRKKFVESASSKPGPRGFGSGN
Sequence of Ffh (P0AGD7 whole entry): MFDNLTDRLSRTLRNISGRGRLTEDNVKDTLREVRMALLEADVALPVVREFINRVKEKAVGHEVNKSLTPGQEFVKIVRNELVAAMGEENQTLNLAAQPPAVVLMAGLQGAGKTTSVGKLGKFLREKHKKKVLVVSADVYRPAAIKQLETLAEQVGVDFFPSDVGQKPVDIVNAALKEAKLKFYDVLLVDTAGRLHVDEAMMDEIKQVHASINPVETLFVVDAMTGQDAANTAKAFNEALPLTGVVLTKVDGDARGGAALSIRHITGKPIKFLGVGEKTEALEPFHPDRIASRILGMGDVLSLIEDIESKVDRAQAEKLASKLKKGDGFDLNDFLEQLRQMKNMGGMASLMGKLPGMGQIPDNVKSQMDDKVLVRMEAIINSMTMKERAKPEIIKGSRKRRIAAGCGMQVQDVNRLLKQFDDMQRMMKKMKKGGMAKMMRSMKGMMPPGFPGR

pKi [1]: 5.49
kcat/Km of the reciprocally stimulated GTPase reaction [2]: 14800 M⁻¹ s⁻¹
Substance: cpFtsY(R166A) (natural protein)

pKd (cpFtsY(321C)-DACM): 5.15
kon (cpFtsY(321C)-DACM): 500000 M⁻¹ s⁻¹
pKd [3]: 6.46
Substance: cpSRP54(234C)-BODIPY-FL (from UniProt P37107 76-564) (natural protein)

pKi [4]: > 6.70
pKi [1]: 6.64
Substance: cpFtsY(A168W) (natural protein)

pKi [5]: 5.70
kcat/Km of the reciprocally stimulated GTPase reaction [6]: 3170 M⁻¹ s⁻¹
Substance: cpSRP54(D137A) (natural protein)

kcat/Km of the reciprocally stimulated GTPase reaction [2]: 633000 M⁻¹ s⁻¹
Substance: cpFtsY(F165A) (natural protein)

pKi [7]: > 6.70
pKi [5]: 6.96
Km of the reciprocally stimulated GTPase reaction [6]: 0.24 µM
kcat/Km of the reciprocally stimulated GTPase reaction [6]: 46700 M⁻¹ s⁻¹
Substance: cpSRP54(A142W) (natural protein)

pKi [5]: 6.29
kcat/Km of the reciprocally stimulated GTPase reaction [6]: 9000 M⁻¹ s⁻¹
Substance: cpSRP54(R140A) (natural protein)

Substance: Ffh (from UniProt P0AGD7)
pKd (FtsY (Escherichia coli)): 5.22
